Earlier results, collected in article PMC8043720.

Biological target: NaV1.7 (Homo sapiens) (UniProt Q15858)
Sequence of UniProt Q15858 (Q15858 whole entry): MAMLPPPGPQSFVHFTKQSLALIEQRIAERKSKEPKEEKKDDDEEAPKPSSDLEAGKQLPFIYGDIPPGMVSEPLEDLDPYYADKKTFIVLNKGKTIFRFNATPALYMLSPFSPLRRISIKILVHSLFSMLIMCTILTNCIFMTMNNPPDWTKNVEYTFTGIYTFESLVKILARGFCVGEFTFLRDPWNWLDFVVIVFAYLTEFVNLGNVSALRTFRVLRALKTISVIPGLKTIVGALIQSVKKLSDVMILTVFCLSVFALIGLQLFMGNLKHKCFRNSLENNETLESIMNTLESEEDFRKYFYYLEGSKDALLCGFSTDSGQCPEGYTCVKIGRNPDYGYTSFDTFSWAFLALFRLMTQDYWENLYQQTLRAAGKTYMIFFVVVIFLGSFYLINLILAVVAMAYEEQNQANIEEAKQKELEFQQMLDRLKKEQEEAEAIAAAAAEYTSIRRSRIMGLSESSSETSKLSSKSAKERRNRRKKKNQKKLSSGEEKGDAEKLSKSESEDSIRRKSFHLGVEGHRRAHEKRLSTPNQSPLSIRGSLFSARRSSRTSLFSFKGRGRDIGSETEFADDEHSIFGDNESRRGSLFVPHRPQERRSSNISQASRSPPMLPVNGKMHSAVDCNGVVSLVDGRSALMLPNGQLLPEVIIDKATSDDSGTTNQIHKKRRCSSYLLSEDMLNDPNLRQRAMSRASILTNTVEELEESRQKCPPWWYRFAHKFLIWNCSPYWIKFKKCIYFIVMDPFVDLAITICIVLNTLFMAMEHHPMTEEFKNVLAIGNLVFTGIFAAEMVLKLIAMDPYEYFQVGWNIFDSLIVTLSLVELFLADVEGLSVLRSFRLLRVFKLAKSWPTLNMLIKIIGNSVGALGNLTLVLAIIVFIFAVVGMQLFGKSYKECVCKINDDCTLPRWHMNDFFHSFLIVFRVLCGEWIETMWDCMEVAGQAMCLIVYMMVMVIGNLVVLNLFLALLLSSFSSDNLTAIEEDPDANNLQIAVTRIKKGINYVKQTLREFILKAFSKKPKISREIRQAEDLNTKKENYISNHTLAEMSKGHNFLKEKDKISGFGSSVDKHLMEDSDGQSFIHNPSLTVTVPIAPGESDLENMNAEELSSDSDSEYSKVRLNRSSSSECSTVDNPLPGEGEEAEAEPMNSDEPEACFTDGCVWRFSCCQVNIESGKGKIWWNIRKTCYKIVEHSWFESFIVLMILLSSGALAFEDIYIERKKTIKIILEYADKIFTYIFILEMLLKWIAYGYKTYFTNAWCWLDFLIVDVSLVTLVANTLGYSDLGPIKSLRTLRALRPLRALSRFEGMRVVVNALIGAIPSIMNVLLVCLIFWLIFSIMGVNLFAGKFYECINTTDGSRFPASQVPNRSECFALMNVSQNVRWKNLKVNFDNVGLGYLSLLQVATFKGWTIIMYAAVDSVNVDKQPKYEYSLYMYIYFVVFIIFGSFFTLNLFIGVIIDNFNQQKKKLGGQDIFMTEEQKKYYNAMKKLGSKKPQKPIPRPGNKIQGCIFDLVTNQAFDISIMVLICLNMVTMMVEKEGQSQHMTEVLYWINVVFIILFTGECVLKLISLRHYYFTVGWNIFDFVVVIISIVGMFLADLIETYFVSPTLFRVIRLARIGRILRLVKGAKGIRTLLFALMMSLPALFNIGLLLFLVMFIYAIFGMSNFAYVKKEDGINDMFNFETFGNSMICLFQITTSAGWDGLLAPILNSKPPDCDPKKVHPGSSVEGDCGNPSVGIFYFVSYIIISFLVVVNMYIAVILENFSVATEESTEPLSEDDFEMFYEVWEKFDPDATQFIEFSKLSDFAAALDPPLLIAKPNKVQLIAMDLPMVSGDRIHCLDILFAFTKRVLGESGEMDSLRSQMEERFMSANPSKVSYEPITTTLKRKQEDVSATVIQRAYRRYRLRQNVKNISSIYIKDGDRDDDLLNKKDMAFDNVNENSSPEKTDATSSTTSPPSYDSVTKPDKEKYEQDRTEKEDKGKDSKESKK

HwTx-IV (from UniProt P83303)
Kd: 26 nM
